Data on 2 proteins can be found in patent US20180179500.

For the data set, the target named is MspA-((Del-L74/G75/D118/L119)D56F/E59R/L88N/D90N/D91N/Q126R/D134R/E139K)8.

B1: T4 Dda-F98W/E94C/C109A/C136A/K194L/A360C (protein)
chain: GTFDDLTEGQKNAFNIVMKAIKEKKHHVTINGPAGTGKTTLTKFIIEALISTGETGIILAAPTHAAKKILSKLSGKEASTIHSILKINPVTYECNVLWEQKEVPDLAKARVLICDEVSMYDRKLFKILLSTIPPWATIIGIGDNKQIRPVDPGENTAYISPFFTHKDFYQCELTEVKRSNAPIIDVATDVRNGLWIYDKVVDGHGVRGFTGDTALRDFMVNYFSIVKSLDDLFENRVMAFTNKSVDKLNSIIRKKIFETDKDFIVGEIIVMQEPLFKTYKIDGKPVSEIIFNNGQLVRIIEAEYTSTFVKARGVPGEYLIRHWDLTVETYGDDEYYREKIKIISSDEELYKFNLFLGKTCETYKNWNKGGKAPWSDFWDAKSQFSKVKALPASTFHKAQGMSVDRAFIYTPCIHYADVELAQQLLYVGVTRGRYDVFYV
B1 displayed a % complement bases missed through slipping of 1.9%, an Average slip length of 23.3, a Number complement slips per 3.6 kb (slips per 3.6 kb) of 3 and a Number complement slips per kb of 0.8 slips per kb. This protein also returned a Total length of complement slips of 70.

B2: T4 Dda-E94C/F98W/C109A/C136A/K199L/A360C (protein)
chain: GTFDDLTEGQKNAFNIVMKAIKEKKHHVTINGPAGTGKTTLTKFIIEALISTGETGIILAAPTHAAKKILSKLSGKEASTIHSILKINPVTYECNVLWEQKEVPDLAKARVLICDEVSMYDRKLFKILLSTIPPWATIIGIGDNKQIRPVDPGENTAYISPFFTHKDFYQCELTEVKRSNAPIIDVATDVRNGKWIYDLVVDGHGVRGFTGDTALRDFMVNYFSIVKSLDDLFENRVMAFTNKSVDKLNSIIRKKIFETDKDFIVGEIIVMQEPLFKTYKIDGKPVSEIIFNNGQLVRIIEAEYTSTFVKARGVPGEYLIRHWDLTVETYGDDEYYREKIKIISSDEELYKFNLFLGKTCETYKNWNKGGKAPWSDFWDAKSQFSKVKALPASTFHKAQGMSVDRAFIYTPCIHYADVELAQQLLYVGVTRGRYDVFYV
For the protein B2, the % complement bases missed through slipping came out at 3.6%, the Average slip length amounted to 21.5, the Number complement slips per 3.6 kb (slips per 3.6 kb) was 6 and the Number complement slips per kb stood at 1.7 slips per kb. For the same protein, the Total length of complement slips is 129.
